In patent publication US20250235548A1, “ANTIBODY-DRUG CONJUGATES TARGETING NAPI2B AND METHODS OF USE” (Zymeworks BC Inc., priority 2022, published 2025):

T1: NaPi2b expressed on IGROV-1 cells (Homo sapiens, UniProt O95436)
T1 construct: endogenous NaPi2b-expressing cancer cell lines IGROV-1 (ovarian carcinoma); endogenous in cells; host or cells: IGROV-1
T1 sequence (O95436 1-690): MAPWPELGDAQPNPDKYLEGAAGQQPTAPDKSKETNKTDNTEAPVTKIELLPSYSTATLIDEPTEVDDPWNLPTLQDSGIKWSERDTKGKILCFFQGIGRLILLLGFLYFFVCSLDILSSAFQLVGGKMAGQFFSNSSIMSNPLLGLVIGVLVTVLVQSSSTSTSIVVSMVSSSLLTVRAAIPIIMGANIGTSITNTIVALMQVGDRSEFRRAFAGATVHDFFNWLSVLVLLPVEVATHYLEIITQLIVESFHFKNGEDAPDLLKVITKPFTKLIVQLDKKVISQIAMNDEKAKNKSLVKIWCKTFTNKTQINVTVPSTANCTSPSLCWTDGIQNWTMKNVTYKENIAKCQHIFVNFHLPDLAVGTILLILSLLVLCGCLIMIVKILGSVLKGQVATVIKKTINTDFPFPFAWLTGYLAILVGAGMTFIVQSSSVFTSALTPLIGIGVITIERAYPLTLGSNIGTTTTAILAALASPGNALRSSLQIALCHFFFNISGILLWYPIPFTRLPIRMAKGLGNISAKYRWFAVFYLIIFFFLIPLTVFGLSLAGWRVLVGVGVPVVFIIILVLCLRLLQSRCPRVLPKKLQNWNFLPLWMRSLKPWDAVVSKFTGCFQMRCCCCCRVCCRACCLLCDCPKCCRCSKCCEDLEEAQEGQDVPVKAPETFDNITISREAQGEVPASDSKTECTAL


Columns and labels:
[1] = target: T1, NaPi2b expressed on IGROV-1 cells; experiment: Cellular binding of bivalent antibodies by flow cytometry (Example 16); details: NB = no cellular binding; for Bmax, IGROV-1: AF647 GeoMean, 24 hours at 4° C.
Experimental: IGROV-1 cells express endogenous NaPi2b at a high level.
Briefly, cells were seeded at 50,000 cells/well in conical-bottom 96-well plates and treated with test antibody for 24 hours at 4° C. to prevent internalization. […] Following incubation and washing, fluorescence was detected by flow cytometry on a BD LSRFortessa™ Cell Analyzer (BD Biosciences, Franklin Lake, NJ) with 1,000 minimum events collected per well.

[2] = Thermal stability by differential scanning calorimetry (Example 8); assay type: physicochemical; details: DSC, 0.4 mg/mL in PBS, 20° C. to 100° C. at 60° C./hr
Experimental: The thermal stability of the humanized antibody variants was assessed by differential scanning calorimetry (DSC) as described below.
400 μL of purified samples primarily at concentrations of 0.4 mg/mL in PBS were used for DSC analysis with a VP-Capillary DSC (Malvern Panalytical Inc., Westborough, MA). At the start of each DSC run, 5 buffer blank injections were performed to stabilize the baseline, and a buffer injection was placed before each sample injection for referencing. Each sample was scanned from 20° C. to 100° C. at a 60° C./hr rate, with low feedback, 8 sec filter, 3 min pre-scan thermostat, and 70 psi nitrogen pressure. The resulting thermograms were referenced and analyzed using Origin 7 software (OriginLab Corporation, Northampton, MA) to determine melting temperature (Tm) as an indicator of thermal stability.

Molecule	Bmax, IGROV-1 [1]	Curve Hill Slope (h), IGROV-1 [1]	Fab Tm (° C.) [2] [°C]
v29453: "Representative humanized antibody variants ... of the mouse antibody" that specifically binds hNaPi2b (antibody, V domains shown, v29449, v29453, v29457 VH (H4); v29453, v29454, v29455, v29456 VL (L2)) VH: QVQLVQSGAEVKKPGASVKMSCKASGFTFTSYNVHWVRQAPGQGLEWIAAISPGNGDLSYAQKFQGRATLTVDRSTSTAYMELSSLRSEDTAVYYCARGRTGMGAVDYWGQGTLVTVSS VL: DVQMTQSPSSLSASVGDRVTITCRASQDVYSYLNWYQQKPGKAVKLLIYYTSRLQSGVPSRFSGSGSGTDYTLTISSLQPEDFATYYCQQYNIFPWTFGQGTKLEIK	44,480	1.2	78.9
v29454: "Representative humanized antibody variants ... of the mouse antibody" that specifically binds hNaPi2b (antibody, V domains shown, v29450, v29454, v29458 VH (H3); v29453, v29454, v29455, v29456 VL (L2)) VH: QVQLVQSGAEVKKPGASVKMSCKASGFTFTSYNVHWVRQAPGQGLEWIAAISPGNGDLSYAQKFQGRATLTVDTSTSTAYMELSSLRSEDTAVYYCARGRTGMGAVDYWGQGTLVTVSS VL: DVQMTQSPSSLSASVGDRVTITCRASQDVYSYLNWYQQKPGKAVKLLIYYTSRLQSGVPSRFSGSGSGTDYTLTISSLQPEDFATYYCQQYNIFPWTFGQGTKLEIK	42,278	1.0	79.7
v29458: "Representative humanized antibody variants ... of the mouse antibody" that specifically binds hNaPi2b (antibody, V domains shown, v29450, v29454, v29458 VH (H3); v29457, v29458, v29459, v29460 VL (L1)) VH: QVQLVQSGAEVKKPGASVKMSCKASGFTFTSYNVHWVRQAPGQGLEWIAAISPGNGDLSYAQKFQGRATLTVDTSTSTAYMELSSLRSEDTAVYYCARGRTGMGAVDYWGQGTLVTVSS VL: DIQMTQSPSSLSASVGDRVTITCRASQDVYSYLNWYQQKPGKAPKLLIYYTSRLQSGVPSRFSGSGSGTDFTLTISSLQPEDFATYYCQQYNIFPWTFGQGTKLEIK	40,793	1.1	81.6
v29457: "Representative humanized antibody variants ... of the mouse antibody" that specifically binds hNaPi2b (antibody, V domains shown, v29449, v29453, v29457 VH (H4); v29457, v29458, v29459, v29460 VL (L1)) VH: QVQLVQSGAEVKKPGASVKMSCKASGFTFTSYNVHWVRQAPGQGLEWIAAISPGNGDLSYAQKFQGRATLTVDRSTSTAYMELSSLRSEDTAVYYCARGRTGMGAVDYWGQGTLVTVSS VL: DIQMTQSPSSLSASVGDRVTITCRASQDVYSYLNWYQQKPGKAPKLLIYYTSRLQSGVPSRFSGSGSGTDFTLTISSLQPEDFATYYCQQYNIFPWTFGQGTKLEIK	44,539	1.0	80.5
v29455: "Representative humanized antibody variants ... of the mouse antibody" that specifically binds hNaPi2b (antibody, V domains shown, v29451, v29455, 29459 VH (H2); v29453, v29454, v29455, v29456 VL (L2)) VH: QVQLVQSGAEVKKPGASVKVSCKASGFTFTSYNVHWVRQAPGQGLEWIAAISPGNGDLSYAQKFQGRVTMTVDTSTSTVYMELSSLRSEDTAVYYCARGRTGMGAVDYWGQGTLVTVSS VL: DVQMTQSPSSLSASVGDRVTITCRASQDVYSYLNWYQQKPGKAVKLLIYYTSRLQSGVPSRFSGSGSGTDYTLTISSLQPEDFATYYCQQYNIFPWTFGQGTKLEIK	41,917	1.1	81.5
v29449: "Representative humanized antibody variants ... of the mouse antibody" that specifically binds hNaPi2b (antibody, V domains shown, v29449, v29453, v29457 VH (H4); v29449, v29450, v29451, v29452 VL (L3)) VH: QVQLVQSGAEVKKPGASVKMSCKASGFTFTSYNVHWVRQAPGQGLEWIAAISPGNGDLSYAQKFQGRATLTVDRSTSTAYMELSSLRSEDTAVYYCARGRTGMGAVDYWGQGTLVTVSS VL: DVQMTQSPSSLSASVGDRVTITCRASQDVYSYLNWYQQKPGKAVKLLIYYTSRLQSGVPSRFSGSGSGTDYTLTISSLQPEDIATYYCQQYNIFPWTFGQGTKLEIK	44,460	1.3	80.0
v29460: "Representative humanized antibody variants ... of the mouse antibody" that specifically binds hNaPi2b (antibody, V domains shown, v29452, v29456, v29460 VH (H1); v29457, v29458, v29459, v29460 VL (L1)) VH: QVQLVQSGAEVKKPGASVKVSCKASGFTFTSYNVHWVRQAPGQGLEWMGAISPGNGDLSYAQKFQGRVTMTRDTSTSTVYMELSSLRSEDTAVYYCARGRTGMGAVDYWGQGTLVTVSS VL: DIQMTQSPSSLSASVGDRVTITCRASQDVYSYLNWYQQKPGKAPKLLIYYTSRLQSGVPSRFSGSGSGTDFTLTISSLQPEDFATYYCQQYNIFPWTFGQGTKLEIK	40,071	1.2	80.3
v29451: "Representative humanized antibody variants ... of the mouse antibody" that specifically binds hNaPi2b (antibody, V domains shown, v29451, v29455, 29459 VH (H2); v29449, v29450, v29451, v29452 VL (L3)) VH: QVQLVQSGAEVKKPGASVKVSCKASGFTFTSYNVHWVRQAPGQGLEWIAAISPGNGDLSYAQKFQGRVTMTVDTSTSTVYMELSSLRSEDTAVYYCARGRTGMGAVDYWGQGTLVTVSS VL: DVQMTQSPSSLSASVGDRVTITCRASQDVYSYLNWYQQKPGKAVKLLIYYTSRLQSGVPSRFSGSGSGTDYTLTISSLQPEDIATYYCQQYNIFPWTFGQGTKLEIK	46,170	1.1	83.0
v29450: "Representative humanized antibody variants ... of the mouse antibody" that specifically binds hNaPi2b (antibody, V domains shown, v29450, v29454, v29458 VH (H3); v29449, v29450, v29451, v29452 VL (L3)) VH: QVQLVQSGAEVKKPGASVKMSCKASGFTFTSYNVHWVRQAPGQGLEWIAAISPGNGDLSYAQKFQGRATLTVDTSTSTAYMELSSLRSEDTAVYYCARGRTGMGAVDYWGQGTLVTVSS VL: DVQMTQSPSSLSASVGDRVTITCRASQDVYSYLNWYQQKPGKAVKLLIYYTSRLQSGVPSRFSGSGSGTDYTLTISSLQPEDIATYYCQQYNIFPWTFGQGTKLEIK	43,809	1.2	81.0
